Measured values as given in patent CN116854812A.

What was measured:
[1] = molecular target: 沙眼衣原体培养物(购自菲鹏生物) (Chlamydia trachomatis); test: indirect ELISA, plate coated with C. trachomatis culture diluted 100x; antibody at 5 ng/ml
[2] = molecular target: 沙眼衣原体培养物(购自菲鹏生物) (Chlamydia trachomatis); test: indirect ELISA, plate coated with C. trachomatis culture diluted 100x; antibody at 10 ng/ml
[3] = molecular target: 沙眼衣原体培养物(购自菲鹏生物) (Chlamydia trachomatis); test: indirect ELISA, plate coated with C. trachomatis culture diluted 100x; antibody at 20 ng/ml
[4] = molecular target: 沙眼衣原体培养物(购自菲鹏生物) (Chlamydia trachomatis); test: indirect ELISA, plate coated with C. trachomatis culture diluted 100x; antibody at 40 ng/ml
[5] = molecular target: 沙眼衣原体培养物(购自菲鹏生物) (Chlamydia trachomatis); test: indirect ELISA, plate coated with C. trachomatis culture diluted 100x; antibody at 2.5 ng/ml
[6] = molecular target: 沙眼衣原体培养物(购自菲鹏生物) (Chlamydia trachomatis); test: indirect ELISA, plate coated with C. trachomatis culture diluted 100x; antibody at 0 ng/ml (blank)

For 对照 (antibody), the OD (450nm, 参考630nm) [1] was 0.503 OD, the OD (450nm, 参考630nm) [2] was 0.825 OD and the OD (450nm, 参考630nm) [3] was 1.2 OD. It also gave an OD (450nm, 参考630nm) [4] of 1.79 OD, an OD (450nm, 参考630nm) [5] of 0.291 OD and an OD (450nm, 参考630nm) [6] of 0.025 OD.

B1: Anti-CT-4B11mut2单克隆抗体 (antibody, part only; not given: light chain, part only)
heavy: QVQVRQSGPGLVQPSQSLSITCTVSGFSLRSHGVNWVRQSPRKGLEWLGVIWKGGSTEYSAAFMSRLSISKDNSKNQIFFKMNSLQADDTAIYYCAKNNDYGRFDYWGQGTLVTVSAAKTTAPSVYPLAPVCGDTTGSSVTLGCLVKGYFPEPVTLTWNSGSLSSGVHTFPAVLQSDLYTLSSSVTVTSSTWPSQSITCNVAHPASSTKVDKKIEPRGPTIKPCPPCKCPAPNLLGGPSVFIFPPKIKDVLMISLSPIVTCVVVDVSEDDPDVQISWFVNNVEVHTAQTQTHREDYNSTLRVVSALPIQHQDWMSGKEFKCKVNNKDLPAPIERTISKPKGSVRAPQVYVLPPPEEEMTKKQVTLTCMVTDFMPEDIYVEWTNNGKTELNYKNTEPVLDSDGSYFMYSKLRVEKKNWVERNSYSCSVVHEGLHNHHTTKSFSRTPGK
B1 was tested, and the OD (450nm, 参考630nm) [1] was 0.959 OD, the OD (450nm, 参考630nm) [2] was 1.33 OD and the OD (450nm, 参考630nm) [3] was 1.71 OD. It also gave an OD (450nm, 参考630nm) [4] of 1.92 OD, an OD (450nm, 参考630nm) [5] of 0.507 OD and an OD (450nm, 参考630nm) [6] of 0.026 OD.

B2: Anti-CT-4B11mut1单克隆抗体 (antibody, mouse IgG2a, kappa, V domains shown)
VH: QVQVRQSGPGLVQPSQSLSITCTVSGFSLRSHGVNWVRQSPRKGLEWLGVIWKGGSTEYSAAFMSRLSISKDNSKNQIFFKMNSLQADDTAIYYCAKNNDYGRFDYWGQGTLVTVSA
VL: EVVLTQSPTTLAASPGETITITCRVSSSISSSYLHWYQQKPGFSPKLLIYRTSNLASGVPARFSGSGSGTSYSLTIGTMEADDVATYYCQQGSSLPRTFGGGTTLEIKR
Molecule B2 has an OD (450nm, 参考630nm) [1] of 0.811 OD, an OD (450nm, 参考630nm) [2] of 1.14 OD and an OD (450nm, 参考630nm) [3] of 1.65 OD. It also gave an OD (450nm, 参考630nm) [4] of 1.9 OD, an OD (450nm, 参考630nm) [5] of 0.462 OD and an OD (450nm, 参考630nm) [6] of 0.043 OD.
